# Test results: PMC4840434, “The interactome of Streptococcus pneumoniae and its bacteriophages show highly specific patterns of interactions among bacteria and their phages” (Scientific Reports, 2016)
# T1: Cp-1 Cpl1, Lysozyme (LuMPIS construct) (phage Cp-1 of S. pneumoniae, UniProt P15057 1-339)
# T1 construct: Cpl1 lysozyme of phage Cp-1; ORF in a Gateway LuMPIS vector; source: HEK cells, raw protein extract
# T1 sequence: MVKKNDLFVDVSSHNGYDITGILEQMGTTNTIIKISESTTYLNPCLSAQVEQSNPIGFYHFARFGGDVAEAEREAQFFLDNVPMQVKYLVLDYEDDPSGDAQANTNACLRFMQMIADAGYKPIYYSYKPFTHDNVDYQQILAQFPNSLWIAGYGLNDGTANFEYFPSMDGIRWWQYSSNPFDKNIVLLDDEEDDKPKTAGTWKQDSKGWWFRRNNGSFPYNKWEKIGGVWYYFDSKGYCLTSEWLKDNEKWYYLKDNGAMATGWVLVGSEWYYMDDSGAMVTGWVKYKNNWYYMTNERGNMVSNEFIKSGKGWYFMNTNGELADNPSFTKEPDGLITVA
# B1: SP_1672, recombination protein RecR (LuMPIS construct) (natural protein)
# chain: MLYPTPIAKLIDSYSKLPGIGIKTATRLAFYTIGMSADDVNEFAKNLLSAKRELTYCSICGRLTDDDPCSICTDPTRDQTTILVLEDSRDVAAMENIQEYHGLYHVLHGLISPMNGISPDDINLKSLMTRLMDSEVSEVIVATNATADGEATSMYLSRLLKPAGIKVTRLARGLAVGADIEYADEVTLLRAIENRTEL
# B2: SP_1208, uridine kinase (LuMPIS construct) (natural protein, S. pneumoniae TIGR4, UniProt P67413 1-212, looked up)
# chain: MQNRPIIIGVTGGSGGGKTSVSRAILSHFPDEKISMIEHDSYYKDQSHLTFEERVKTNYDHPFAFDTDLMIEQIKELLAGRPVDIPTYDYTEHTRSSKTYRQEPQDVFIVEGILVLEDKRLRDLMDIKIFVDTDDDVRIIRRIKRDMEERGRSLDSVINQYLGVVKPMYHQFIESTKRYADIVIPEGVSNTVAIDLLTTKIAKILEEARNSK
# notes: SP_1208 uridine kinase, S. pneumoniae TIGR4; ORF in a Gateway LuMPIS vector; source: HEK cells, raw protein extract
# B3: SP_1088, DNA repair protein RadC (LuMPIS construct) (natural protein)
# chain: MYSISFQEDSLLPRERLAKEGVEALSNQELLAILLRTGTRQASVFEIAQKVLNNLSSLTDLKKMTLQELQSLSGIGRVKAIELQAMIELGHRIHKHETLEMESILSSQKLAKKMQQELGDKKQEHLVALYLNTQNQIIHQQTIFIGSVTRSIAEPREILHYAIKHMATSLILVHNHPSGAVAPSQNDDHVTKLVKEACELMGIVLLDHLIVSHSNYFSYREKTDLI
# Columns and labels:
# Experiment in all cases: pull-down; LuMPIS: N-terminally MBP-tagged bait pulled down on amylose beads, N-terminally eGFP-luciferase-tagged prey detected by luciferase activity; both expressed in HEK cells, raw protein extracts; quadruplicates; LIR against MBP without ORF
# [1] = biological target: Dp-1 orf47, Hypothetical protein (LuMPIS construct) (phage Dp-1 of S. pneumoniae)
# [2] = biological target: Dp-1 orf72, Membrane protein (LuMPIS construct) (phage Dp-1 of S. pneumoniae)
# [3] = biological target: Dp-1 orf58, Holin (LuMPIS construct) (phage Dp-1 of S. pneumoniae)
# [4] = biological target: Cp-1 orf16, Hypothetical protein (LuMPIS construct) (phage Cp-1 of S. pneumoniae)
# [5] = biological target: Dp-1 orf39, Zinc finger protein (LuMPIS construct) (phage Dp-1 of S. pneumoniae)
# [6] = biological target: Dp-1 orf31, Hypothetical protein (LuMPIS construct) (phage Dp-1 of S. pneumoniae)
# [7] = biological target: Dp-1 orf32, Hypothetical protein (LuMPIS construct) (phage Dp-1 of S. pneumoniae)
# [8] = biological target: Dp-1 orf16, NAD-dependent DNA ligase (LuMPIS construct) (phage Dp-1 of S. pneumoniae)
# [9] = biological target: Dp-1 orf9, No similarity (LuMPIS construct) (phage Dp-1 of S. pneumoniae)
# [10] = biological target: Dp-1 orf60, Hypothetical protein (LuMPIS construct) (phage Dp-1 of S. pneumoniae)
# [11] = biological target: Dp-1 orf51, Hypothetical protein (LuMPIS construct) (phage Dp-1 of S. pneumoniae)
# [12] = biological target: T1, Cp-1 Cpl1, Lysozyme (LuMPIS construct); conditions: partners not purified
# [13] = biological target: Dp-1 orf33, Hypothetical protein (LuMPIS construct) (phage Dp-1 of S. pneumoniae)
molecule,measurement,setting,value
"SP_0687, ABC transporter, ATP-binding protein (LuMPIS construct) (from UniProt A0A0H2UP48 1-213) (natural protein)",LIR (luminescence intensity ratio against MBP alone),[1],4
"SP_1606, glycosyl transferase, family 2 (LuMPIS construct) (from UniProt A0A0H2UQY5 1-320) (natural protein)",LIR (luminescence intensity ratio against MBP alone),[2],50
same,LIR (luminescence intensity ratio against MBP alone),[3],3
"SP_0259, Holliday junction DNA helicase RuvB (LuMPIS construct) (from UniProt Q97SR6 1-332) (natural protein)",LIR (luminescence intensity ratio against MBP alone),[4],12
same,LIR (luminescence intensity ratio against MBP alone),[5],10
same,LIR (luminescence intensity ratio against MBP alone),[6],4
same,LIR (luminescence intensity ratio against MBP alone),[7],3
same,LIR (luminescence intensity ratio against MBP alone),[8],5
same,LIR (luminescence intensity ratio against MBP alone),[9],11
"SP_2024, PTS system, IIA component (LuMPIS construct) (from UniProt A0A0H2US90 1-108) (natural protein)",LIR (luminescence intensity ratio against MBP alone),[10],5
B1,LIR (luminescence intensity ratio against MBP alone),[11],6
B2,LIR (luminescence intensity ratio against MBP alone),[12],4
B3,LIR (luminescence intensity ratio against MBP alone),[13],3
